Reference: PMC2673036, “Ancient mtDNA Genetic Variants Modulate mtDNA Transcription and Replication”

T1: TFAM (mitochondrial transcription factor A) (UniProt Q00059 43-246)
T1 sequence: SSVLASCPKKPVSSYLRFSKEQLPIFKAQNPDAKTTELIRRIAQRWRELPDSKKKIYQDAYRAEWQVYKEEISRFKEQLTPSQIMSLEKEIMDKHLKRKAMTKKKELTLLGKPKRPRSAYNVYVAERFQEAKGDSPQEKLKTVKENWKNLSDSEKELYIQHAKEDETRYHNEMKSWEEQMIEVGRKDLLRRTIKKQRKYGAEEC

B1: wt-295 (CRS 276-303) (dsDNA)
DNA 1: ACATCATAACAAAAAATTTCCACCAAAC
DNA 2: GTTTGGTGGAAATTTTTTGTTATGATGT
B2: C295T-VAR (haplogroup J, 276-303) (dsDNA)
DNA 1: ACATCATAACAAAAAATTTTCACCAAAC
DNA 2: GTTTGGTGAAAATTTTTTGTTATGATGT

Tests used:
[1] = biological target: T1, TFAM (mitochondrial transcription …); experiment: EMSA; TFAM:probe 10:1 and 25:1; reference for normalization; 10 mM Tris-HCl pH 7.5, 10 mM KCl, 1 mM DTT, 1 mM EDTA, 6% glycerol; 3 nM probe, 30 or 75 nM TFAM; 30 min, room temperature; 5% native PAGE, 0.5x TBE; settings: protein: recombinant; (PNK end label); blunt
[2] = biological target: T1, TFAM (mitochondrial transcription …); experiment: EMSA; TFAM:probe 10:1 and 25:1; increased binding vs wt-295, exact value only in figure; 10 mM Tris-HCl pH 7.5, 10 mM KCl, 1 mM DTT, 1 mM EDTA, 6% glycerol; 3 nM probe, 30 or 75 nM TFAM; 30 min, room temperature; 5% native PAGE, 0.5x TBE; settings: protein: recombinant; (PNK end label); blunt

| Binder | binding signal [1] | binding signal [2] |
| --- | --- | --- |
| B1 | 1 relative to wt-295 |  |
| B2 |  | > 1 relative to wt-295 |
